Measured values: patent US20160074473A1, “EFFECT OF PHOSPHOLIPID COMPOSITION OF RECONSTITUTED HDL ON ITS CHOLESTEROL EFFLUX AND ANTI-INFLAMMATORY PROPERTIES” (Kinemed, Inc., priority 2014, published 2016)
“And” between values parts separate entries of the source, which are not always exact repeats. Equal values may be shown once. Read-outs that look alike come from different tables or passages of the source.

Experiments:
[1] = target: T1, BHK cells stably transfected with human SR-BI (Homo sapiens, UniProt Q8WTV0); assay: Cholesterol efflux assay in vitro, SR-BI; type: cell-based; conditions: 18 h incubation
T1 construct: expressed in transfected cells; host or cells: BHK cells (stably transfected, mifepristone-inducible)
T1 sequence (Q8WTV0 1-552): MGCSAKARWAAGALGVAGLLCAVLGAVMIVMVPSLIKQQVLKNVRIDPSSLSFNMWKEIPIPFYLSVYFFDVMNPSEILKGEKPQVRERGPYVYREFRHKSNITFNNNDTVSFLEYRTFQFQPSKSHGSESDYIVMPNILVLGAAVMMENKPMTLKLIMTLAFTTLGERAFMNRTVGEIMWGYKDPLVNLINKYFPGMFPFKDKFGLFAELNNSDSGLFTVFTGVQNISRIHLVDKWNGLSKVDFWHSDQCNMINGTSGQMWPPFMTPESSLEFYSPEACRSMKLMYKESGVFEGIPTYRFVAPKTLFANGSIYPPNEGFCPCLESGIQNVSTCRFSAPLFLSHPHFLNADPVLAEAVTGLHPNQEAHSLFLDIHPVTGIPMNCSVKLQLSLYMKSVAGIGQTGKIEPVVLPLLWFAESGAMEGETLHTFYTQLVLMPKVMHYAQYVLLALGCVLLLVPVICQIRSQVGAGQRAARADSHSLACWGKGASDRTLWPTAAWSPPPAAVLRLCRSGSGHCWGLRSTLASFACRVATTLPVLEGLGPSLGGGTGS
Procedure: (§1) Cholesterol efflux studies were performed, as described previously (25, 26). Briefly, BHK-mock and BHK stably transfected cells with human ABCA1 cDNA, ABCG1 cDNA and SR-BI cDNA were labeled for 24 h with 1 μCi/ml of ^3H-cholesterol in minimum essential medium medium plus 10% fetal calf serum. Transporters were induced with 10 nM mifepristone in Dulbecco's modified Eagle's medium (DMEM), containing 0.2 mg/ml of fatty acid-free bovine serum albumin for 18 h. Following induction of the transporters, the cells were washed and test articles were added at 0.1, 2.5, 5, 10, 20 and 40 μM in DMEM-BSA containing mifepristone. The cholesterol efflux by BSA, free 5A peptide, purified HDL, and ApoA-I were used as quality control standards. […] Radioactive counts in media and cell fractions were measured by liquid scintillation counting, and percent cholesterol effluxed was calculated by dividing media count by the sum of media and cell counts. […]
(§2) Cholesterol efflux studies were performed, as described previously (25, 26). […] Radioactive counts in media and cell fractions were measured by liquid scintillation counting, and percent cholesterol effluxed was calculated by dividing media count by the sum of media and cell counts.

[2] = Alpha-helical content by circular dichroism; type: physicochemical
Procedure: High-density lipoprotein-like 5A-POPC and 5A-SM complexes were prepared by a co-lyophilization procedure (25, 26). Peptide and phospholipids were dissolved in glacial acetic acid and mixed at 1:1.25 w/w ratio (approximately 1:7 molar ratio) and lyophilized. The powder was hydrated with bicarbonate buffered saline and cycled between 50° C. and room temperature to facilitate 5A-lipid binding. The resulting HDL complexes were analyzed by gel permeation chromatography, with UV detection at 220 nm, using Tosoh TSK gel G3000SWx1 column (Tosoh Bioscience, King of Prussia, Pa.). The HDL hydrodynamic diameters were determined by dynamic light scattering (DLS), using a Zetasizer Nano, Malvern Instruments (Westborough, Mass.). The number and intensity average values were reported. The alpha-helical contents of free and lipid bound 5A peptide were determined by Jasco J715 (Jasco, Easton, Md.) circular dichroism spectropolarimeter. Samples at 0.1 mg/mL concentration were loaded into a quartz cuvette (d=0.2-cm path length), and CD spectra from 185 to 240 nm were recorded at 24° C. […]
High-density lipoprotein-like 5A-POPC and 5A-SM complexes were prepared by a co-lyophilization procedure (25, 26). […] The resulting HDL complexes were analyzed by gel permeation chromatography, with UV detection at 220 nm, using Tosoh TSK gel G3000SWx1 column (Tosoh Bioscience, King of Prussia, Pa.). […]

[3] = target: T2, BHK cells stably transfected with human ABCG1 (Homo sapiens, UniProt P45844); assay: Cholesterol efflux assay in vitro, ABCG1; type: cell-based; conditions: 18 h incubation
T2 construct: expressed in transfected cells; host or cells: BHK cells (stably transfected, mifepristone-inducible)
Procedure: as §1, §2

[4] = cited from earlier work

Substance	cholesterol efflux via SR-BI [1]	Helicity (%) ([2]; Example 1, 0.1 mg/mL, 24° C.)	alpha-helix content ([2]; Example 2, n=3, mean±SD) [%]	cholesterol efflux via ABCG1 [3]	helicity ([4]; associated with lipids)	helicity ([4]; lipid-free state)
DWLKAFYDKVAEKLKEAFPDWAKAAYDKAAEKAKEAA [5A, ApoA-I mimetic, 37-amino acid-long bi-helical peptide]	relatively low cholesterol efflux	19% and 18.9%	18.8±0.3	relatively low cholesterol efflux	–	–
apoA-I: the main protein in High Density Lipoprotein (HDL)	–	–	–	–	over 80%	about 20%
